Test [1] concerns the target T1, human GLP-1 receptor (human, UniProt P43220 24-463).
T1 construct: whole, on cells; also called hGLP-1R; human glucagon-like peptide-1 receptor
Description: SPA competition vs [125I]-GLP-1, hGLP-1R membranes. In a few lines:
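Kᵢ values are geometric means (SEM) over replicates run on separate days, derived from IC₅₀ of four-parameter curve fits. Buffer: HEPES 25 mM pH 7.4 with CaCl₂ 2.5 mM, MgCl₂ 1 mM, bacitracin 0.1%, TWEEN-20 0.003%, EDTA-free protease inhibitors.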

Test [2] concerns the target T2, human GIP receptor (human, UniProt P48546 22-466).
T2 construct: whole, on cells; also called hGIPR; human glucose-dependent insulinotropic polypeptide receptor
T2 sequence (looked up): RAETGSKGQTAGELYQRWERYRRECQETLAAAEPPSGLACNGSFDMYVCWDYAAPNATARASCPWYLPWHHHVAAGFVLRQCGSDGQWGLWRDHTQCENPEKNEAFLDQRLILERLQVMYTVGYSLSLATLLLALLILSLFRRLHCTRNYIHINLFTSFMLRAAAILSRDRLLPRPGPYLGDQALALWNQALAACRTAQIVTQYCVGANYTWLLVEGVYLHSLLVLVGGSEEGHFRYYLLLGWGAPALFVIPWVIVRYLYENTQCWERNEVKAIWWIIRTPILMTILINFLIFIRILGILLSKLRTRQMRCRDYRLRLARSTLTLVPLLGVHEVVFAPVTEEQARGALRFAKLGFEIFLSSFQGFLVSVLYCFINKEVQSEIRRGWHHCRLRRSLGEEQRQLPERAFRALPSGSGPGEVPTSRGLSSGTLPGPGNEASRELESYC
The test is described as follows: SPA competition vs [125I]-GIP, hGIPR membranes.

In test [3] the target is T3, human glucagon receptor (human, UniProt P47871 26-477).
T3 construct: whole, on cells; also called hGCGR; hGcgR
Description: SPA competition vs [125I]-Gcg, hGcgR membranes.
T3 sequence (P47871 26-477): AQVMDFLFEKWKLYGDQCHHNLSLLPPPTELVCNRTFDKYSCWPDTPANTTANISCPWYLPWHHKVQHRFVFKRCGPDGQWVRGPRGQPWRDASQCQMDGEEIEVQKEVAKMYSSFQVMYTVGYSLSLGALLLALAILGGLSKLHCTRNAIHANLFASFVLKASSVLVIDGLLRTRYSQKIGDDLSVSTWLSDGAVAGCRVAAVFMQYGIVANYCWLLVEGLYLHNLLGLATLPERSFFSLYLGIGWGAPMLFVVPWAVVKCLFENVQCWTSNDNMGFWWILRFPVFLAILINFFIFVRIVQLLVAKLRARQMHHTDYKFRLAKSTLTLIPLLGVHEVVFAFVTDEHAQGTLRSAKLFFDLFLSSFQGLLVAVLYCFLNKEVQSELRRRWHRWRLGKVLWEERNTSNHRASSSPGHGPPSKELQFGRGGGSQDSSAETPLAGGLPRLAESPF

Test [4] concerns the target T4, human GIP receptor (human, UniProt P48546 22-466).
T4 sequence (looked up): T2 sequence (looked up)
Description: cell-based or functional assay.

The target in test [5] is human GLP-1 receptor (human, UniProt P43220 24-463). The test is described as follows: cell-based or functional assay.
The target of test [6] is human glucagon receptor (human, UniProt P47871 26-477). The test is described as follows: cell-based or functional assay.

Where a chain is given by its changes, count along the chain named. *1 amine or outer side, *2 acyl side, *3 side chain or, on linkers, in order; H or OH if unused. Where no end group is shown, it is not given here. Side-chain parts run from the residue outwards. [ ]: non-standard residue; d: D form. The star is where a group is joined. αMePhe(2-F) = C[C@](N)(Cc1ccccc1F)C(=O)O; γGlu = O=C(O)[C@H](CCC(=O)[*:2])N[*:1]; C14 diacid = O=C(O)CCCCCCCCCCCCC(=O)*; αMeY = C[C@](N)(Cc1ccc(O)cc1)C(=O)O; αMeL = CC(C)C[C@](C)(N)C(=O)O; Nle = CCCC[C@H](N)C(=O)O; Orn = NCCC[C@H](N)C(=O)O; AEEA = NCCOCCOCC(=O)O; Aib = CC(C)(N)C(=O)O Where only a bound is given, the exact number is not on record here.

B1: Y-Aib-EGT-αMeF(2F)-TSD-4Pal-Aib-I-αMeL-LD-Orn-QAQ-Aib-Orn-FIK((2-[2-(2-Amino-ethoxy)-ethoxy]-acetyl)-(γ-Glu)-(2-[2-(2-Amino-ethoxy)-ethoxy]-acetyl)-(γ-Glu)-CO-( … (peptide)
peptide: YXEGTXTSDXXIXLDXQAQXXFIKXLIKGGPSSGAPPPS
modifications: Aib2, αMeF(2F)6, 4Pal10, Aib11, αMeL13, Orn16, Aib20, Orn21, K24(Z1), αMeY25, K28(Z1), C-term NH2; Z1=AEEA-(γ-Glu)-AEEA-(γ-Glu)-CO-(CH2)12-CO2H
In the case of B1, the Ki stood at 0.268 nM with human GLP-1 receptor [1], 0.0296 nM with human GIP receptor [2] and 305 nM with human glucagon receptor [3].

B2: Y-Aib-EGT-αMeF(2F)-TSDY-Aib-I-αMeL-LD-Orn-QAQ-Aib-Orn-FIK((2-[2-(2-Amino-ethoxy)-ethoxy]-acetyl)2-(γ-Glu)--C10_4CP)-αMeY-LIK((2-[2-(2-Amino-ethoxy)-ethoxy]-acet … (peptide)
peptide: B1 peptide with X10Y
modifications: Aib2, αMeF(2F)6, Aib11, αMeL13, Orn16, Aib20, Orn21, K24(Z1), αMeY25, K28(Z1), C-term NH2; Z1=AEEA2-(γ-Glu)-C10_4CP (so in the source)
For B2, the values for the Ki with human GLP-1 receptor [1], with human GIP receptor [2] and in the test with human glucagon receptor [3] were 0.233 nM, 0.0264 nM and 28.6 nM, respectively.

B3: Example 249 (peptide)
peptide: YXEGTXTSDXSIXLDXKAQXKFIXXLIEGGPSSGAPPPS
modifications: Y-Aib-EGT-αMeF(2F)-TSD-2Nal-SI-αMeL-LD-Orn-K((2-[2-(2-Amino-ethoxy)-ethoxy]-acetyl)2-(γ-Glu)-CO-(CH2)12-CO2H)AQ-Aib-K((2-[2-(2-Amino-ethoxy)-ethoxy]-acetyl)2-(γ-Glu)-CO-(CH2)12-CO2H)FI-(D-Glu)-αMeY-LIEGGPSSGAPPPS-NH2
In the case of B3, the “cAMP EC50 (1.0% HSA)” value with human GIP receptor [4] was 5.88 nM; in the test with human GLP-1 receptor [5], 51.6 nM; with human glucagon receptor [6] it was more than 9950 nM.

B4: Y-Aib-EGT-αMeF(2F)-TSD-hY-SI-αMeL-LD-Orn-QAQ-Aib-Orn-FIK((2-[2-(2-Amino-ethoxy)-ethoxy]-acetyl)2-(γ-Glu)-CO-(CH2)12-CO2H)-αMeY-LIK((2-[2-(2-Amino-ethoxy)-ethoxy … (peptide)
peptide: B1 peptide with X11S
modifications: Aib2, αMeF(2F)6, hY10 (so in the source), αMeL13, Orn16, Aib20, Orn21, K24(Z1), αMeY25, K28(Z1), C-term NH2; Z1=AEEA2-(γ-Glu)-CO-(CH2)12-CO2H
B4: the inhibition constant (Ki) with human GLP-1 receptor [1] was 0.182 nM; in the test with human GIP receptor [2], 0.0301 nM; with human glucagon receptor [3] it was 94.4 nM.

B5: Example 239 (peptide)
peptide: B1 peptide with X10Y, Q17I, X21E
modifications: Y-Aib-EGT-αMeF(2F)-TSDY-Aib-I-αMeL-LD-Orn-IAQ-Aib-EFIK((2-[2-(2-Amino-ethoxy)-ethoxy]-acetyl)2-(γ-Glu)-(10-(4-carboxyphenoxy)decanoyl))-αMeY-LIK((2-[2-(2-Amino-ethoxy)-ethoxy]-acetyl)2-(γ-Glu)-(10-(4-carboxyphenoxy)decanoyl))GGPSSGAPPPS-NH2
In the case of B5, the “cAMP EC50 (1.0% HSA)” value in the test with human GIP receptor [4] is 5.46 nM; with human GLP-1 receptor [5] it was 25.2 nM; with human glucagon receptor [6] it was more than 9950 nM.

B6: Example 227 (peptide)
peptide: B3 peptide with K17I, E28K
modifications: Y-Aib-EGT-αMeF(2F)-TSD-4Pal-SI-αMeL-LD-Orn-IAQ-Aib-K((2-[2-(2-Amino-ethoxy)-ethoxy]-acetyl)3-(γ-Glu)-CO-(CH2)12-CO2H)FI-(D-Glu)-αMeY-LIK((2-[2-(2-Amino-ethoxy)-ethoxy]-acetyl)3-(γ-Glu)-CO-(CH2)12-CO2H)GGPSSGAPPPS-NH2
Take B6: the results for the “cAMP EC50 (1.0% HSA)” value in the test with human GIP receptor [4], with human GLP-1 receptor [5] and in the test with human glucagon receptor [6] were 1.59 nM, 41.8 nM and more than 9950 nM, respectively.

B7: Y-Aib-EGT-αMeF(2F)-TSD-4Pal-Aib-I-αMeL-LD-Orn-QAQ-Aib-Orn-FIK((2-[2-(2-Amino-ethoxy)-ethoxy]-acetyl)-(γ-Glu)-(2-[2-(2-Amino-ethoxy)-ethoxy]-acetyl)-(γ-Glu)-(10- … (peptide)
peptide: B1 peptide
modifications: Aib2, αMeF(2F)6, 4Pal10, Aib11, αMeL13, Orn16, Aib20, Orn21, K24(Z1), αMeY25, K28(Z1), C-term NH2; Z1=AEEA-(γ-Glu)-AEEA-(γ-Glu)-(10-(4-carboxyphenoxy)decanoyl)
As for B7, the Ki in the test with human GLP-1 receptor [1] came out at 0.3 nM; with human GIP receptor [2], 0.0548 nM; with human glucagon receptor [3], 121 nM.

B8: Example 233 (peptide)
peptide: B1 peptide with X10Y, Q17I, X21E
modifications: Y-Aib-EGT-αMeF(2F)-TSDY-Aib-I-αMeL-LD-Orn-IAQ-Aib-EFIK((2-[2-(2-Amino-ethoxy)-ethoxy]-acetyl)2-(γ-Glu)-CO-(CH2)12-CO2H)-αMeY-LIK((2-[2-(2-Amino-ethoxy)-ethoxy]-acetyl)2-(γ-Glu)-CO-(CH2)12-CO2H)GGPSSGAPPPS-NH2
On to B8, for which the “cAMP EC50 (1.0% HSA)” value in the test with human GIP receptor [4] was 6.08 nM; with human GLP-1 receptor [5], 56.7 nM; with human glucagon receptor [6], more than 9950 nM. Besides, the “cAMP Emax (1.0% HSA)” value in the test with human GIP receptor [4] was found to be 91.4%.

B9: Example 226 (peptide)
peptide: B1 peptide with X11S, Q17I, X21E
modifications: Y-Aib-EGT-αMeF(2F)-TSD-4Pal-SI-αMeL-LD-Orn-IAQ-Aib-EFIK((2-[2-(2-Amino-ethoxy)-ethoxy]-acetyl)3-(γ-Glu)-CO-(CH2)12-CO2H)-αMeY-LIK((2-[2-(2-Amino-ethoxy)-ethoxy]-acetyl)3-(γ-Glu)-CO-(CH2)12-CO2H)GGPSSGAPPPS-NH2
For B9, the “cAMP EC50 (1.0% HSA)” value is 4.86 nM with human GIP receptor [4], 11.3 nM with human GLP-1 receptor [5] and more than 9950 nM in the test with human glucagon receptor [6].

B10: Example 219 (peptide)
peptide: B1 peptide with Q17I, X21E
modifications: Y-Aib-EGT-αMeF(2F)-TSD-4Pal-Aib-I-αMeL-LD-Orn-IAQ-Aib-EFIK((2-[2-(2-Amino-ethoxy)-ethoxy]-acetyl)2-(γ-Glu)-CO-(CH2)12-CO2H)-αMeY-LIK((2-[2-(2-Amino-ethoxy)-ethoxy]-acetyl)2-(γ-Glu)-CO-(CH2)12-CO2H)GGPSSGAPPPS-NH2
As for B10, the entries for the “cAMP EC50 (1.0% HSA)” value with human GIP receptor [4], with human GLP-1 receptor [5] and with human glucagon receptor [6] were 2.86 nM, 25.9 nM and more than 9950 nM, respectively.

B11: Y-Aib-EGT-αMeF(2F)-TSD-4Pal-SI-αMeL-LD-Orn-K((2-[2-(2-Amino-ethoxy)-ethoxy]-acetyl)2-(γ-Glu)-CO-(CH2)14-CH3)AQ-Aib-EFIK((2-[2-(2-Amino-ethoxy)-ethoxy]-acetyl)2- … (peptide)
peptide: B3 peptide with K21E, X24K
modifications: Aib2, αMeF(2F)6, 4Pal10, αMeL13, Orn16, K17(Z1), Aib20, K24(Z1), αMeY25, C-term NH2; Z1=AEEA2-(γ-Glu)-CO-(CH2)14-CH3
For the molecule B11, the Ki with human GLP-1 receptor [1] worked out at 0.301 nM; with human GIP receptor [2], 0.0217 nM; in the test with human glucagon receptor [3], 0.596 nM.

B12: Y-Aib-EGT-αMeF(2F)-TSD-4Pal-Aib-I-αMeL-LD-Orn-QAQ-Aib-Orn-FIK((γ-Glu)-(2-[2-(2-Amino-ethoxy)-ethoxy]-acetyl)2-(γ-Glu)-(10-(4-carboxyphenoxy)decanoyl))-αMeY-LIK( … (peptide)
peptide: B1 peptide
modifications: Aib2, αMeF(2F)6, 4Pal10, Aib11, αMeL13, Orn16, Aib20, Orn21, K24(Z1), αMeY25, K28(Z1), C-term NH2; Z1=(γ-Glu)-AEEA2-(γ-Glu)-(10-(4-carboxyphenoxy)decanoyl)
In the case of B12, the Ki with human GLP-1 receptor [1] is 0.263 nM; in the test with human GIP receptor [2], 0.0236 nM; with human glucagon receptor [3], 151 nM.

B13: Y-Aib-EGT-αMeF(2F)-TSD-4Pal-Aib-I-αMeL-LD-Orn-QAQ-Aib-Orn-FIK((2-[2-(2-Amino-ethoxy)-ethoxy]-acetyl)-(γ-Glu)3-CO-(CH2)12-CO2H)-αMeY-LIK((2-[2-(2-Amino-ethoxy)-e … (peptide)
peptide: B1 peptide
modifications: Aib2, αMeF(2F)6, 4Pal10, Aib11, αMeL13, Orn16, Aib20, Orn21, K24(Z1), αMeY25, K28(Z1), C-term NH2; Z1=AEEA-(γ-Glu)3-CO-(CH2)12-CO2H
B13: the figures for the Ki with human GLP-1 receptor [1], with human GIP receptor [2] and with human glucagon receptor [3] were 0.299 nM, 0.046 nM and 115 nM, respectively.

B14: Example 222 (peptide)
peptide: B3 peptide with K17I, E28K
modifications: Y-Aib-EGT-αMeF(2F)-TSD-4Pal-SI-αMeL-LD-Orn-IAQ-Aib-K((2-[2-(2-Amino-ethoxy)-ethoxy]-acetyl)2-CO-(CH2)12-CO2H)Fl-(D-Glu)-αMeY-LIK((2-[2-(2-Amino-ethoxy)-ethoxy]-acetyl)2-CO-(CH2)12-CO2H)GGPSSGAPPPS-NH2 …
B14: the entries for the “cAMP EC50 (1.0% HSA)” value in the test with human GIP receptor [4], in the test with human GLP-1 receptor [5] and with human glucagon receptor [6] were 2.1 nM, 13.8 nM and more than 9950 nM, respectively. Also, the “cAMP Emax (1.0% HSA)” value with human GLP-1 receptor [5] was found to be 117%.

As for Y[Aib]EGT[αMePhe(2-F)]TSD[Nle]SI[αMeL]LD[Orn]QAQ[Aib][Orn]FIK([AEEA-AEEA-γGlu-C14 diacid])[αMeY]LIK([AEEA-AEEA-γGlu-C14 diacid])GGPSSGAPPPS-NH2, the Ki in the test with human GLP-1 receptor [1] was 0.27 nM; with human GIP receptor [2], 0.0288 nM; in the test with human glucagon receptor [3], 37.8 nM.

The values are drawn from patent US20230265151A1, “GIP/GLP1 CO-AGONIST COMPOUNDS” (priority 2020, published 2023).
